Measured values published in paper doi:10.1101/2021.10.05.463282 (2021).

target: recombinant trimeric spike protein derived from SARS-CoV-2 (Sino Biological) (SARS-CoV-2, ancestral (Wuhan-Hu-1) …, UniProt P0DTC2); experiment: ELISA

Row | Binder | binding result
1 | B8-mIgA1 (antibody, V domains shown) VH: EVQLVQSGAEVKKPGSSVKVSCKASGGTFSNYGISWVRQAPGQGLEWMGRILPTFGTANSAQKFQGRVTITADESTGTAYMELRSLRSEDTAVYYCAKEGLAFLGYGMDVWGQGTTVTVSS VL: EIVLTQSPGTLSLSPGERATLSCRASQSVSSYLAWYQQKPGQAPRLLIYDASNRATGIPARFIGSGSGTDFTLTISSLEPEDFAVYFCQQRSNWPLTFGGGTKVEIK | binds
2 | B8-IgG1 (antibody, V domains shown) VH: EVQLVQSGAEVKKPGSSVKVSCKASGGTFSNYGISWVRQAPGQGLEWMGRILPTFGTANSAQKFQGRVTITADESTGTAYMELRSLRSEDTAVYYCAKEGLAFLGYGMDVWGQGTTVTVSS VL: EIVLTQSPGTLSLSPGERATLSCRASQSVSSYLAWYQQKPGQAPRLLIYDASNRATGIPARFIGSGSGTDFTLTISSLEPEDFAVYFCQQRSNWPLTFGGGTKVEIK | binds
3 | B8-dIgA1 (antibody, V domains shown) VH: EVQLVQSGAEVKKPGSSVKVSCKASGGTFSNYGISWVRQAPGQGLEWMGRILPTFGTANSAQKFQGRVTITADESTGTAYMELRSLRSEDTAVYYCAKEGLAFLGYGMDVWGQGTTVTVSS VL: EIVLTQSPGTLSLSPGERATLSCRASQSVSSYLAWYQQKPGQAPRLLIYDASNRATGIPARFIGSGSGTDFTLTISSLEPEDFAVYFCQQRSNWPLTFGGGTKVEIK | binds
4 | B8-dIgA2 (antibody, V domains shown) VH: EVQLVQSGAEVKKPGSSVKVSCKASGGTFSNYGISWVRQAPGQGLEWMGRILPTFGTANSAQKFQGRVTITADESTGTAYMELRSLRSEDTAVYYCAKEGLAFLGYGMDVWGQGTTVTVSS VL: EIVLTQSPGTLSLSPGERATLSCRASQSVSSYLAWYQQKPGQAPRLLIYDASNRATGIPARFIGSGSGTDFTLTISSLEPEDFAVYFCQQRSNWPLTFGGGTKVEIK | binds
5 | B8-mIgA2 (antibody, V domains shown) VH: EVQLVQSGAEVKKPGSSVKVSCKASGGTFSNYGISWVRQAPGQGLEWMGRILPTFGTANSAQKFQGRVTITADESTGTAYMELRSLRSEDTAVYYCAKEGLAFLGYGMDVWGQGTTVTVSS VL: EIVLTQSPGTLSLSPGERATLSCRASQSVSSYLAWYQQKPGQAPRLLIYDASNRATGIPARFIGSGSGTDFTLTISSLEPEDFAVYFCQQRSNWPLTFGGGTKVEIK | binds

target: SARS-CoV-2 spike ectodomain trimer (SARS-CoV-2, ancestral (Wuhan-Hu-1) …, UniProt P0DTC2); experiment: cryo-EM structure

Row | Binder | binding result
6 | B8 Fab (Fab, V domains shown) VH: EVQLVQSGAEVKKPGSSVKVSCKASGGTFSNYGISWVRQAPGQGLEWMGRILPTFGTANSAQKFQGRVTITADESTGTAYMELRSLRSEDTAVYYCAKEGLAFLGYGMDVWGQGTTVTVSS VL: EIVLTQSPGTLSLSPGERATLSCRASQSVSSYLAWYQQKPGQAPRLLIYDASNRATGIPARFIGSGSGTDFTLTISSLEPEDFAVYFCQQRSNWPLTFGGGTKVEIK | binds
